Results as given in patent US7153654.

Target: anti-hCG monoclonal antibody from Organon Teknika
Assay: competition: hCG displaces FpepT (5.5×10^-8 M) from anti-hCG Mab (4.5×10^-8 M), fluorescence EX=561 nm EM=590 nm; K1 of the fit

## human chorionic gonadotrophin (hCG) (from UniProt P01215 25-116; P0DN86 21-165) (ligand)
  Kd: 0.49 nM
